Laboratory results from publication PMC6354225, “Synthesis and Preclinical Characterization of the PSMA-Targeted Hybrid Tracer PSMA-I&F for Nuclear and Fluorescence Imaging of Prostate Cancer” (Journal of Nuclear Medicine, 2019).

Experiments:
[1] = design: method as in earlier work; details: cited from earlier work
LNCaP xenografts = experiment: Intraoperative / ex vivo fluorescence imaging of LNCaP xenografts; assay type: in vivo, CB17 SCID mice; details: 2 nmol, 1 h after injection, Dino-Lite microscope and Firefly laparoscope
Experimental: Fluorescence imaging (intraoperative/ex vivo) of LNCaP xenografts in CB17 SCID mice (1 h after injection) was performed using 2 different instrumental setups: a handheld digital microscope for Cy5 (Dino-Lite Edge AM4115T-DFRW; AnMo Electronics Corp.) and DinoCapture 2.0 software (AnMo Electronics Corp.); and a 0°Firefly laparoscope that is compatible with the surgical robotic da Vinci Si system (Intuitive Surgical Inc.), using a fluid light cable for target illumination (495 FR; KARL STORZ Endoskope GmbH&Co.KG) and a bandpass filter (Edmund Optics Inc.) to isolate the Cy5 emission. Images were captured from the unprocessed Firefly video feed. For instrumental details see supplemental data.

[2] = molecular target: human serum albumin (HSA) (Homo sapiens, UniProt P02768); experiment: HSA binding by gradient high-performance liquid chromatography method; assay type: in vitro ADME; details: plasma
Chain of human serum albumin (HSA) (P02768 25-609): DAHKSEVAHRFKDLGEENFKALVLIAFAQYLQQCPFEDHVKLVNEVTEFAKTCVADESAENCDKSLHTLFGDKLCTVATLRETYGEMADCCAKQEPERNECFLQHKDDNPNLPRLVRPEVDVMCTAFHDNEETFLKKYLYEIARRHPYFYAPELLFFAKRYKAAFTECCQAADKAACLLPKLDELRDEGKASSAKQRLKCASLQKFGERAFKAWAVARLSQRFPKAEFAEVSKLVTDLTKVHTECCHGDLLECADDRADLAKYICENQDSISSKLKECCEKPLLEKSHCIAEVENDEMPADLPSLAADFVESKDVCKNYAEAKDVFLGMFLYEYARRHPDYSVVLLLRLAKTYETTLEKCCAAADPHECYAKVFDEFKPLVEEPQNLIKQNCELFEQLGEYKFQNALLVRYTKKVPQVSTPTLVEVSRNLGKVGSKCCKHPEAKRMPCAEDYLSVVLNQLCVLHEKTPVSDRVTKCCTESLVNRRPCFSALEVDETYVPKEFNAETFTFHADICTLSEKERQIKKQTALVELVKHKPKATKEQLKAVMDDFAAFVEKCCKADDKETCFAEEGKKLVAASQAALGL
Experimental: The lipophilicity of ^68Ga- and ^177Lu-PSMA-I&F was determined via a modified shake-flask method as previously described ([38]). Plasma protein binding of both tracers was determined using 2 alternative methods, that is, incubation in fresh human plasma and subsequent ultrafiltration ([20]) and a previously established gradient high-performance liquid chromatography method for the quantification of human serum albumin (HSA) binding ([41],[42]).

[3] = test system: PSMA-positive LNCaP cells; experiment: Fluorescence microscopy of ligand internalization, PSMA-positive cells; assay type: cell-based; details: 25 nM, 60 min, 37°C
Experimental: Competitive binding experiments (IC50) were performed in analogy to a previously published protocol ([38]) using LNCaP cells and (^125I-BA)KuE as a standard radioligand. Internalization kinetics of ^68Ga-PSMA-I&F and ^177Lu-PSMA-I&F (2 nM) were investigated in dual-tracer internalization assays using PSMA-expressing LNCaP cells and (^125I-BA)KuE (0.1 nM) as an internal reference. To differentiate between membrane-bound and internalized activity, an acid wash (50 mM NaOAc in saline, pH 4.5) was performed prior to lysis of the cells (1N NaOH) and quantification of internalized activity (lysate) using a γ-counter. […] For fluorescence microscopy, PSMA-positive LNCaP and PSMA-negative PC3 cells (seeded on glass cover slips) were incubated with the respective PSMA-I&F analog (100 or 25 nM) in the absence (total binding/internalization) or presence (nonspecific binding/internalization) of 10 μM 2-PMPA at 37 °C for 5 or 60 min. […] Ligand internalization was visualized using a Keyence BZ-9000 fluorescence microscope equipped with Cy5 (620/60 nm excitation, 700/75 nm emission), DAPI-BP (370/50 nm excitation, 447/60 nm emission), and GFP-BP (472.5/30 nm excitation, 520/35 nm emission) filters.

[4] = test system: tumor xenograft (PC-3 PIP); details: in vivo; cited from earlier work
LNCaP tumors = details: in vivo; cited from earlier work
[5] = design: method as in PMID 28721307; details: cited from earlier work

CN1/C(=C/C=C/C=C/C2=[N+](CCCCCC(=O)O)c3ccc(S(=O)(=O)[O-])cc3C2(C)C)C(C)(C)c2cc(S(=O)(=O)O)ccc21 [Sulfo-Cy5]
brightness [1]: 51 × 10^3 M^−1⋅cm^−1

C[N+]1=C(/C=C/C=C/C=C2/N(CCCCCC(=O)NCCCC[C@@H](NC(=O)CCC(C(=O)O)N3CCN(CC(=O)O)CCN(CC(=O)O)CCN(CC(=O)O)CC3)C(=O)N[C@H](Cc3ccc(O)c(I)c3)C(=O)N[C@H](Cc3ccc(O)c(I)c3)C(=O)N[C@H](CCCCNC(=O)CCCCCCC(=O)NCCCC[C@H](NC(=O)N[C@@H](CCC(=O)O)C(=O)O)C(=O)O)C(=O)O)c3ccc(S(=O)(=O)O)cc3C2(C)C)C(C)(C)c2cc(S(=O)(=O)[O-])ccc21 (stereo partly drawn) [PSMA-I&F, DOTAGA-D-Lys(Nε-Sulfo-Cy5)-D-(3-iodo)Tyr-D-(3-iodo)Tyr-D-Lys(Nε-Sub-KuE)]
Intraoperative and ex vivo fluorescence detection of tumor xenograft (LNCaP xenografts): sensitive in vivo detection of the PSMA-I&F–positive tumor xenograft with good contrast to the surrounding tissue
fraction unbound [2]: 0.017
Comparative ligand internalization by fluorescence microscopy [3]: highly efficient and identical ligand internalization

^111In-DOTA-Lys(Nε-IRDye800CW)-Sub-KuE
Increase of tracer uptake in the excretion organs and the tumor xenograft (PC-3 PIP) compared with parent compound [4]: 2-4 factor
tumor-to-blood ratio [4]: 1.4
tumor-to-intestines ratio [4]: 7.7
tumor-to-liver ratio [4]: 5.8
tumor-to-muscle ratio [4]: 11.6

IRDye800CW-^68Ga-HBED-CC-KuE
tumor-to-blood ratio (LNCaP tumors): 4.5
tumor-to-intestines ratio (LNCaP tumors): 5.7
tumor-to-liver ratio (LNCaP tumors): 4.9
tumor-to-muscle ratio (LNCaP tumors): 4.8

CC1(C)C(/C=C/C=C/C=C/C=C2\N(CCCCS(=O)(=O)O)c3ccc4ccccc4c3C2(C)C)=[N+](CCCCS(=O)(=O)[O-])c2ccc3ccccc3c21 [ICG, indocyanine green]
brightness (quantum yield) [5]: 0.3%
